Source: patent US20240360229A1 (Genentech, published 2024)
Positions count from the first letter of the chain named. Names and notes keep the numbering of the source. One block for each binder: values may come before it.

What was measured:
[1] = biological target: T1, Human CD3-epsilon/delta dimer (linked by murine Fc) (human; mouse, UniProt P07766 23-126; P04234 22-105); test: SPR (Biacore T200, 37 C), TDB captured by anti-human Fc on CM5, huCD3ed-mIgG2a.Fc injected; 1:1 Langmuir, n=3
T1 construct: also called huCD3ed-mIgG2a.Fc; recombinant human CD3epsilon/delta; not shown: mouse IgG2a Fc
T1 sequence (P07766 23-126, stated change not applied, chain 1 of 2): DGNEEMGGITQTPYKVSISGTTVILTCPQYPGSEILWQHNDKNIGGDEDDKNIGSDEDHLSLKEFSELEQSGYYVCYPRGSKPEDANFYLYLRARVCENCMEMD
T1 sequence (P04234 22-105, stated change not applied, chain 2 of 2): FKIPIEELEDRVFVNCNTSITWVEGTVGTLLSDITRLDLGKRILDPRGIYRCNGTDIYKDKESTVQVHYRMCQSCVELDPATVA

cyno CCR8 [2] = biological target: T2, cyno CCR8 (cynomolgus monkey, UniProt O97665 1-356 (rhesus entry)); test: LigandTracer real-time fluorescence, Alexa Fluor 488-labelled TDB on CHO cells expressing cyno CCR8; 1-to-2 fit, bivalent event
T2 construct: also called cynomolgus CCR8; cyCCR8
T2 sequence (O97665 other isoform, or with tags, fused parts or gaps): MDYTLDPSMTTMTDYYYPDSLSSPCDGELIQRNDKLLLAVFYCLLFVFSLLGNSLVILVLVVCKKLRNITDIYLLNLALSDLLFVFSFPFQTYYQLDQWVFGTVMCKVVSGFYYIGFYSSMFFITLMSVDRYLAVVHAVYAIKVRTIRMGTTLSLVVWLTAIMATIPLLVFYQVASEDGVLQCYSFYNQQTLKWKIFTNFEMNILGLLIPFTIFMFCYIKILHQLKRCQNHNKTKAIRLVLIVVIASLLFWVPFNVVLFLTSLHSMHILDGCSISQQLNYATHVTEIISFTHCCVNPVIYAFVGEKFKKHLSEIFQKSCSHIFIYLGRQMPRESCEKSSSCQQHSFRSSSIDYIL
Protocol: (§1) The following day, media was aspirated and fresh media was added. The cells were incubated at room temperature for 20 minutes prior to starting the assay. The plate was loaded onto a LIGAND TRACER® Green instrument (Ridgeview Instruments AB) for real-time fluorescence measurement. […] Antibody (Ab) dissociation was recorded by aspirating the media and adding fresh media with 10 nM of unlabeled Ab to prevent rebinding of labeled Ab. The Ab dissociation was measured overnight to obtain accurate off-rates. Untransfected CHO cells were used to subtract the non-specific binding. Specific binding traces were analyzed using TraceDrawer 1.7 (Ridgeview Instruments) software and fit with a 1-to-2 with bulk binding model to determine association (kₐ) and dissociation (kd) rate constants. The equilibrium dissociation constants (KD) for each binding event were calculated as the ratio of the dissociation and association rates, kd/kₐ.
(§2) 1 million CHO cells stably expressing either human or cynomolgus CCR8 (about 60,000 and about 30,000 receptors/cell, respectively) were seeded at a concentration of 1 million cells/mL onto a Multidish 2×2 Petri Dish (Ridgeview Instruments AB, Sweden) to form a circular drop of about 3 cm diameter in chambers A and C of the dish. […] The plate was loaded onto a […]® Green (Ridgeview Instruments AB) for real-time fluorescence measurement.

human CCR8 [3] = biological target: T3, human CCR8 (human, UniProt P51685 1-355); test: LigandTracer real-time fluorescence, Alexa Fluor 488-labelled TDB on CHO cells expressing human CCR8; 1-to-2 fit, bivalent event
T3 construct: also CHO-hCCR8-Ga15 / CHO/hCCR8.Gna15); also called hCCR8; huCCR8
T3 sequence (P51685 whole entry): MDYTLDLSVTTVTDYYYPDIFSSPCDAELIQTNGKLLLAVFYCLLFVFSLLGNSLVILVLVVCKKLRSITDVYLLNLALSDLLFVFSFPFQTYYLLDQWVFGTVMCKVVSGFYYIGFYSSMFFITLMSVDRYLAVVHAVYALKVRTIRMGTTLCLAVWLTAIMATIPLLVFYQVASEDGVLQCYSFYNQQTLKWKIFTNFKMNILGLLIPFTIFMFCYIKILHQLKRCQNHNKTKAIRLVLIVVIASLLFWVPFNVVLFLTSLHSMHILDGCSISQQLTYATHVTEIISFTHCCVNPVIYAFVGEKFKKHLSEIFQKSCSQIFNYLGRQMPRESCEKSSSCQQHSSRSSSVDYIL
Protocol: as §1, §2

cyno CCR8 [4] = biological target: T2, cyno CCR8; test: LigandTracer real-time fluorescence, Alexa Fluor 488-labelled TDB on CHO cells expressing cyno CCR8; 1-to-2 fit, monovalent event
Protocol: as §1, §2

human CCR8 [5] = biological target: T3, human CCR8; test: LigandTracer real-time fluorescence, Alexa Fluor 488-labelled TDB on CHO cells expressing human CCR8; 1-to-2 fit, monovalent event
Protocol: as §1, §2

cyno CCR8 [6] = biological target: T2, cyno CCR8; test: cellular binding with LigandTracer on CHO cells expressing cyno CCR8, three experiments (same values as the bivalent row of Table 8)
Protocol: (§3) Untransfected CHO cells were used to subtract the non-specific binding. Specific binding traces were analyzed using TraceDrawer 1.7 (Ridgeview Instruments) software and fit with a 1-to-2 with bulk binding model to determine association (kₐ) and dissociation (kd) rate constants. The equilibrium dissociation constants (KD) for each binding event were calculated as the ratio of the dissociation and association rates, kd/kₐ.
(§4) 1 million CHO cells stably expressing either human or cynomolgus CCR8 (about 60,000 and about 30,000 receptors/cell, respectively) were seeded at a concentration of 1 million cells/mL onto a Multidish 2×2 Petri Dish (Ridgeview Instruments AB, Sweden) to form a circular drop of about 3 cm diameter in chambers A and C of the dish. Untransfected CHO cells were seeded in opposing chambers (B and D) in the same manner. Cells were left undisturbed to adhere for 4 hours. […] The plate was loaded onto a […]® Green (Ridgeview Instruments AB) for real-time fluorescence measurement. […] The Ab dissociation was measured overnight to obtain accurate off-rates. […] Specific binding traces were analyzed using TraceDrawer 1.7 (Ridgeview Instruments) software to determine the association-(kₐ) and dissociation-(kd) rate constants. The equilibrium dissociation constants (KD) for each binding event were calculated as the ratio of the dissociation and association rates, kd/kₐ. […]

human CCR8 [7] = biological target: T3, human CCR8; test: cellular binding with LigandTracer on CHO cells expressing human CCR8, three experiments (same values as the bivalent row of Table 8)
Protocol: as §3, §4

cyno CCR8 [8] = biological target: T2, cyno CCR8; test: flow cytometry titration on CHO cells stably expressing cyno CCR8 (14 h, room temperature)
Protocol: (§5) In particular, human CCR8 CHO and cyno (cynomolgus monkey) CCR8 CHO stable cell lines were stained with a dilution series of anti-CCR8 antibodies at room temperature for 14 hours, then washed twice with FACS buffer (PBS with 0.5% BSA and 0.2 mM EDTA). Samples were washed twice with FACS buffer followed by staining with goat Fab anti-hu IgG H+L (1:300, Jackson Immuno) at 4° C. for 15 minutes.

human CCR8 [9] = biological target: T3, human CCR8; test: flow cytometry titration on CHO cells stably expressing human CCR8 (14 h, room temperature)
Protocol: as §5

B1: 1889/1889:40G5c anti-CCR8 TDB 2+1 A/AB (A: 1889 P, B: 40G5c) (bispecific antibody, human IgG1, kappa, L234A L235A)
heavy 1: EVQLLESGGGLVQPGGSLRLSCAASGIDLSTYAMGWVREAPGKGLEWVGLIHRSGRTYYATWAKGRFTISKDSSKNTLYLQMNSLRAEDTAVYYCTRSYPDYSATASIWGQGTTVTVSSASTKGPSVFPLAPSSKSTSGGTAALGCLVKDYFPEPVTVSWNSGALTSGVHTFPAVLQSSGLYSLKSVVTVPSSSLGTQTYICNVNHKPSNTKVDKKVEPKSCDKTHTCPPCPAPEAAGGPSVFLFPPKPKDTLMISRTPEVTCVVVDVSHEDPEVKFNWYVDGVEVHNAKTKPREEQYNSTYRVVSVLTVLHQDWLNGKEYKCKVSNKALGAPIEKTISKAKGQPREPQVYTLPPSREEMTKNQVSLWCLVKGFYPSDIAVEWESNGQPENNYKTTPPVLDSDGSFFLYSKLTVDKSRWQQGNVFSCSVMHEALHNHYTQKSLSLSPGK
light 1: DIQVTQSPSSLPASVGDRVTITCQASENIANALAWYQKKPGKPPKFLIYGASNLASGVPSRFSGSGSGTDFTFTISSLQPEDIATYYCQQAYYGNSFVEGTFGGGTKVEIKRTVAAPSVFIFPPSDEQLKSGTASVECLLNNFYPREAKVQWKVDNALQSGNSQESVTEQDSKDSTYSLSSTLTLSKADYEKHKVYACEVTHQGLSSPVTKSFNRGEC
heavy 2: EVQLLESGGGLVQPGGSLRLSCAASGIDLSTYAMGWVREAPGKGLEWVGLIHRSGRTYYATWAKGRFTISKDSSKNTLYLQMNSLRAEDTAVYYCTRSYPDYSATASIWGQGTTVTVSSASTKGPSVFPLAPSSKSTSGGTAALGCLVKDYFPEPVTVSWNSGALTSGVHTFPAVLQSSGLYSLKSVVTVPSSSLGTQTYICNVNHKPSNTKVDKKVEPKSCDKTHTEVQLVQSGAEVKKPGASVKVSCKASGYTFTNYYIHWVRKAPGQGLEWIGWIYPGDGNTKYNEKFKGRATLTADTSTSTAYLELSSLRSEDTAVYYCARDSYSNYYFDYWGQGTLVTVSSASTKGPSVFPLAPSSKSTSGGTAALGCLVKDYFPEPVTVSWNSGALTSGVHTFPAVLQSSGLYSLESVVTVPSSSLGTQTYICNVNHKPSNTKVDKKVEPKSCDKTHTCPPCPAPEAAGGPSVFLFPPKPKDTLMISRTPEVTCVVVDVSHEDPEVKFNWYVDGVEVHNAKTKPREEQYNSTYRVVSVLTVLHQDWLNGKEYKCKVSNKALGAPIEKTISKAKGQPREPQVYTLPPSREEMTKNQVSLSCAVKGFYPSDIAVEWESNGQPENNYKTTPPVLDSDGSFFLVSKLTVDKSRWQQGNVFSCSVMHEALHNHYTQKSLSLSPGK
light 2: not shown
notes: 2+1 T cell-dependent bispecific: human IgG1 Fc with LALA-PG, knob-into-hole and charge mutations
Kd [1]: 1160 nM
Kd (cyno CCR8 [2]): 0.0228 nM
Kd (human CCR8 [3]): 0.00778 nM
Kd (cyno CCR8 [4]): 1.01 nM
Kd (human CCR8 [5]): 0.484 nM
Kd (cyno CCR8 [6]): 0.023 nM
Kd (human CCR8 [7]): 0.008 nM

B2: anti-CCR8 1889 WT antibody (parent) (antibody, V domains shown)
VH: EVQLLESGGGLVQPGGSLRLSCAASGIDLSTYAMGWVREAPGKGLEWVGLIHRSGRTYYATWAKGRFTISKDSSKNTLYLQMNSLRAEDTAVYYCTRSYPDYSATASIWGQGTTVTVSS
VL: DIQVTQSPSSLSASVGDRVTITCQASENIANALAWYQKKPGKPPKFLIYGASNLASGVPSRFSGSGSGTDFTFTISSLQPEDIATYYCQQAYYGNSFVEGTFGGGTKVEIK
notes: The antibody has human IgG constant regions (detected with anti-human IgG)
EC50 (cyno CCR8 [8]): 11.5 nM
EC50 (human CCR8 [9]): 17.1 nM

B3: anti-CCR8 1889 S12P.I29V (PV) (antibody, V domains shown)
VH: B2 VH
VL: B2 VL with S12P, I29V
EC50 (cyno CCR8 [8]): 7.67 nM
EC50 (human CCR8 [9]): 1.65 nM

B4: anti-CCR8 1889 S12P.I29V.E95dS.Y58A (PVSA) (antibody, V domains shown)
VH: B2 VH with Y58A
VL: B2 VL with S12P, I29V, E99S
notes: It is put together from the printed names of the heavy and light chain variants
EC50 (cyno CCR8 [8]): 3.39 nM
EC50 (human CCR8 [9]): 1.19 nM

B7: anti-CCR8 1889 S12P.I29V.Y58A (PVA) (antibody, V domains shown)
VH: B2 VH with Y58A
VL: B2 VL with S12P, I29V
notes: It is put together from the printed names of the heavy chain variant (Y58A) and the light chain variant (S12P.I29V)
EC50 (cyno CCR8 [8]): 6.14 nM
EC50 (human CCR8 [9]): 1.03 nM

More lines, now with the values ahead:

EC50 (cyno CCR8 [8]): 3.13 nM
EC50 (human CCR8 [9]): 0.66 nM
B5: anti-CCR8 1889 S12P.I29V.E95dS (PVS) (antibody, V domains shown)
VH: B2 VH
VL: B2 VL with S12P, I29V, E99S

EC50 (cyno CCR8 [8]): 2.24 nM
EC50 (human CCR8 [9]): 0.94 nM
B6: anti-CCR8 1889 S12P.I29V.E95dS.T57D.Y58A (PVSDA) (antibody, V domains shown)
VH: B2 VH with T57D, Y58A
VL: B2 VL with S12P, I29V, E99S
notes: It is put together from the printed names of the heavy and light chain variants; also called I29V.E95dS.Y57D.Y58A
